In the DeepSol protein solubility set:

Assay: soluble on expression in E. coli; label from the status in PepcDB or PDB records
For “MPPKKAPAKKLHELAAEVRVGHKINDISKKTFIVGKQFATGGFGRIHTCTEEGKSQQMVMKIEPSTNGPLLTEVVVFNRILKKELIESYKKKKKISWIGLPYLIANGYFTYESEKMRYMIIPKYATSLEAVRETNGGTLAMKDSLTVASCILDALEYLHESDYAHADVKAANILLEKQGVYSTAVLVDFGLAHRTTNNVDKPDKKRAHNGTCIFTSTDAHRGNNPSFRGDIEILAYNLMMWATGTLPWMALESSPEKVFDAKQKFIAGLPGTLQNVLKNESSAVVGCIASMFDISMKTNYTDKVDMGKLKKLVTDAIQKTSSDGKKTPTRQKKLAEEDKNAVTPKRSTRRLAVKEESDNKDNDEVEVKPEKKATPRKRTTRKAVEVNNDSDDNEEQYENPKSKSSRTQTKSKRAKEEDVDDEEEIIIPKSSRSRSKVQLSGEGSDVTTPSSAASTSRSRSIRLGLTSSTASSNKVAKKIEQKYKRLSMNKSSLVPVTISVASDKSPTTSTPSSSSGLRSKRKSSEDVGEGITLKTQVLITPAIKKAKTKSGISSATKASPTELRRVPGVRNFPKGRRSMIIKETSAKYKERLASRQTKPTFDDSSCSSEV”, the “soluble on expression in E. coli” value was “not soluble”.
For “MGSDKIHHHHHHMNSNPFVSVVMSVYNGGEFLKDAINSILSQSYKNFEFIIINDGSSDNFSEILELYDDERIKVLNNQENKGLVYSLNRGLLESIGKYIVRMDADDISLPNRIEKQVEFMEREPEVGVCGSYIEIFGDTIKRKVQRFPSNVNVNEAFLLFSTCLAHPSVIIRKSIVDKYKLRYDDRYLHAEDYAIWCQAVKYTKISNIREVLLKYRILESSVTRQANKNFQSRFDVHKSIYKDIFRNKGIDYTEKELYLHFIISDNNRFRNQALTIRPSEINAHLTKILSHYRGASNYKYIAFLVNKRGLSLSRWYSESRGFYFIMYLFKFLYYKIQIKK”, the “soluble on expression in E. coli” value was “not soluble”.
For “LDKRWLQICEDASTLCADRVKEVLEGHGFTGLHVAAAVADTMAVGDTLFLGASNPVRDASLVGMPLGGVDIFAARGAAGIDGTVSQAVGVALDVQHRDATAIRADRTVALMGDVTFLHDVGGLLGARPENLTIVVANDDGCGIFETLEIGAPEFRPSFEQAFGTPHGVHIEAIAQAYGVNYLRAETLPELIEALIDTTDSAGFNIIEAVTTRSTRRDIDKALTL”, the “soluble on expression in E. coli” value was “not soluble”.
In the case of “MEHICGTSRIAGFRFSLYPMTDDFISVIKSALKKTDTSKVWTKTDHISTVLRGSIDHVFDAAKAIYLHAANSEQHIVMNGTFSIGCPGDTQGDTYLSKGDKRVNEDAVRGLKAEAPCQFALYPMNEPDYMGLIMEAVDIAKAQGTFVQGVHYASELDGDAHDVFSTLEAVFRMAEQQTNHITMTVNLSANSPSRKNRKQG”, the “soluble on expression in E. coli” value is reported as “soluble”.
For “MASKTIKIMPVGDSCTEGMGGGEMGSYRTELYRLLTQAGLSIDFVGSQRSGPSSLPDKDHEGHSGWTIPQIASNINNWLNTHNPDVVFLWIGGNDLLLNGNLNATGLSNLIDQIFTVKPNVTLFVADYYPWPEAIKQYNAVIPGIVQQKANAGKKVYFVKLSEIQFDRNTDISWDGLHLSEIGYKKIANIWYKYTIDILRALAGETQLEHHHHHH”, the “soluble on expression in E. coli” value was “soluble”.
In the case of “SYHTGTAYGMIDLPRILRSITTFESFGKVKIGILKKGIQAIESLLVARHQMYSAVYMHPTVRIADTMIKRAVIKEIQEKNLDIKDLANMDDIALVSFLRISENYLMERIDRRNLYKNLITYSYFDLNPIEKWIFVNLDEKQILSLESRFYEEFGWDIFIDIYPIPKMEEHNVYIISDEGVKRLDEVSPLAQSLK”, the “soluble on expression in E. coli” value is reported as “not soluble”.
In the case of “MGKDGEGDKKRETMAVMSLMKDQQNPIQQFQVKFKEIETGFKSWLSKQKLPVEAAVVTAMGGVQGAFIGGLMGTLSPEMPQAGIDPQAMASLKQTQALVGGPLVQARNFAAITGVNAGIACVMKRIRGKEDLESAVVAAFGSGVAYSLVSAGLQGQPMNAITTAAGFAVFQGVFFKLGERFSKPSVEDPYYTRGRSMLLKLGLEKYEKNFKKGLLADPTLPLLTDSALRDVSIPPGPRLLILDHIQRDPELKGKRGSRG”, the “soluble on expression in E. coli” value is reported as “not soluble”.
With “MNSAVGAELFMGDDGVSLRPGLGGTESVLESWRYIMGKLRVGRFLISSRVNGPGRRFVIWFQGCPIRCRGCLNPEFHDEDGGHLIETARLVDMIRDLRDEIEGVTFTGGEPLAQAMELVKLAGAVKSMGLTVVCFTGYEMDEILKGNIEGGLELLEFVDVLIDGPYIEEKSAPLLWRGSTNQDVYFLTERYAEFRDRVMACSEMEAELKVGADGVYMTGIFDVEFWEELRRRLGDGSLEHHHHHH” the “soluble on expression in E. coli” value was “not soluble”.
With “MSSSGPTRSISTGTKPPTESLYKREVAQMMQQHQQQQRINNNKGYRPQGASPPKELKRRFYDDGSVTPSSRQSRNERSMDGRPSPEHGAIIGENRKSSPPAEEKYSNSGTRCKLPIPDMFRFYDKEMANEKLESLGLADEDDKKTLTKMRRHSIWMDNQLLNQLQASESNKQYLSAKKQMRDILITRIDHIDNAHKNVNSLFVHDFVHDYIILFKNKVSKSEKFLLCLKKINN” the “soluble on expression in E. coli” value was “not soluble”.
In the case of “SAAPMSNVDEIRDRVILGEFGVKNVHTTDYPGNYPGYDDTWDFEKFKKNFRIEIISSDENTLEFDMIGIDAAIANAFRRILLAEVPTMAIEKVFIYNNTSIIQDEILAHRLGLVPIKADPRLFEYRNSEDQEGTEIDTIQLQLKVKCTRNPRAPKDSSDPKELYLNHMIYSGDIKWLPIGNQADVFADAKIGPVHGDILLAQVRPGQELDIVMHCVKGIGKDHAKFSPVATASYRLLPEITLLQTIEGEQAERLKRCFSPGVIELENVNGRKVAKVVNSRLDTCSREVLRHDDLKSLVKLGRVRDHFIFSVESTGILPPDVLVTEAINVLMSKCQKFLTELEATEMD”, the “soluble on expression in E. coli” value is reported as “soluble”.
For “MGSDKIHHHHHHMALTQITQTVSPQPTPPELRKYDYDLVIVGGGIVGLTLASALKDSGLNILLIEAKVSSAAVAKGQAYAVHLLSALIYQGIGIWDKILPQIAKYRQVRLSDADYPGVVEFETTDLGTPELGYVAEHQALLEPLQEFVQNCPNVTYLCPAEVVSTNYQQNEVVIAVKIADQLNTIRSKLLVAADGSRSPIRQAAGIKTHGWKYWQSCIVAFVKPEKPHNDTAYERFWPSGPFAILPLPGNRCRIVWTAPHDEAKALCALNDEEFLQELSQRFGKQMGKLELLGDRFVFQVQLMQSDRYVLPRLALVGDAAHNCHPVGGQGLNLGIRDVAALAQVIQKAHQAGEDIGNIRVLKRYESWRQKENLAILGFTDMLDRMFSNQFPPLVFVRRLGLWFLQSVPALKTFMLKLMIGLKGKTPELAKR”, the “soluble on expression in E. coli” value was “not soluble”.
With “MQLDEDDMIINIFWADDRSISDYNLFGDVICFEQLIRPMHMIDPLLICRGQSSQANSCVW” the “soluble on expression in E. coli” value was “not soluble”.
In the case of “MSLARNLKADKTKTIGVIVRDITGFDTSRTIRGVDDFCKGCDYNALIYNTDFDPETEAKSLEALYQMRVDGIIIASSGQNNTLISEYIDKGMPIVHFQLEHDGSEKNLILSDYRQAAFDATEYLIKLGHKRICFMTQDFKNVKSRNERYSGYVAALKKYDIVQDPALIQYWQRETGFDHSPKSVLESAAAPTAFFTQHLAITTELLTHLNQENITIPDDVSLIGFDDIPMAEFFKVPVTVIKQEPYIIGKEAAKLLLEKVNDKNRHSQKIMISCSITERQSCTEGHHHHHH”, the “soluble on expression in E. coli” value is reported as “soluble”.
With “MGSDKIHHHHHHMINIFKPRTLTFYLVKSMDVLELLSELVSFNTVNDPNKGIKPSKECPRFIKDQLDSWDIESEIIERSGYYAVYGEIGDGTPRLLFMAHFDVVPVNLEEWETDPFELTIKENKAYGRGSADDKGNVAAVMLALKELSKEEKLNGRVIFAFTGDEEIGGAMAMHIAEKLSKEGKVPKYMINADGIGMKPIIRRRKGFGVEIKVYPRKVKVKGRVREIEFEPKTPVVETRHAAYFLPGVDTHPMVALSHFLRNSNAVAISLDGAFIKGNVIPGKVKLKYVEPGEGEEVEGDLSLTALLKAIVPIVRAPIKAEKYSDYGVSITPNVYSFDGSHVLKVDVRAMSYSKDDIEKTLREVLNFNLPEAELIIKENEKAGYLFTSPDDELVRVTLRILKELGEDVEPIEGPGASDSRYFTPLGVKAIDIGPRGGNIHGPNEYVEVDSLRKMPEIYRRIALSLLL” the “soluble on expression in E. coli” value was “not soluble”.
